Measured values as given in patent US20240425867A1, “NUCLEIC ACID-BASED ASSEMBLY AND USES THEREOF” (Rheinische Friedrich-Wilhelms-Universität Bonn, priority 2016, published 2024).
“And” between values parts separate entries of the source, which are not always exact repeats. Equal values may be shown once.

Experiments:
[1] = Critical micelle concentration via FRET (6-Fam/Atto647N-labeled motif 3); format: physicochemical; conditions: room temperature
Protocol: The critical micelle concentration (CMC) value of the trCLN3-L4 aggregates was determined by intermolecular Förster resonance energy transfer (FRET) experiments using a FRET pair of 6-Fam and Atto647N both attached to the 5′-end of the trCLN3-L4 motif 3. The FRET labels were attached at the 5′-end in immediate proximity to the lipid-modifications to ensure that intermolecular FRET effects report the formation of micellar nanoconstructs at a concentration above the critical micelle concentration.
In the FRET experiment, a series of nanoconstructs was self-assembled by mixing 6-Fam- and Atto647N-labeled motif 3 in 1:1 ratios in a concentration range between 0.035-15 μM (Table 2). […] The mixtures were transferred into a 384-well plate and the FRET effect was monitored at room temperature by using an excitation wave length of λex=480 nm and an emission wavelength of λem=669 nm using an EnSpire® Multimode Plate Reader (PerkinElmer).
The intensity signals were collected for both FRET channels at λem=669 nm for the acceptor channel and that of donor channel at λem=520 nm. […] The CMC value was determined from the intersection of the lower horizontal asymptote of the sigmoidal curve with the tangent at the inflection point corresponding to the minimum trCLN3-L4 concentration required for formation of stable micelles in aqueous medium. […]

[2] = Atomic force microscopy (AFM) size of nanoconstructs; format: physicochemical; conditions: Gaussian fit of at least 50 nanoconstructs
Protocol: All AFM images of the trCLN3-L4 and HyApNc aggregates were taken by using a Nanowizard III AFM (JPK instruments, Berlin) in tapping mode. ACTA probes with silicon tips were used for imaging in dry mode in air. A volume of 3 μL (5 mM) of a solution of magnesium acetate (MgAc2) in water was deposited on a freshly cleaved mica surface layer and allowed to incubate for 3 minutes and afterwards the surface was rinsed with 2×10 μL of milli-Q water and dried under air pressure. For imaging a volume of 3 μL of the trCLN3-L4/HyApNc solutions in ultra pure water were spotted on the pre-treated mica surface and allowed to incubate for 1 min. After 1 min incubation on the mica surface, the excess sample solution was gently shaken off and the mica surface was blown dry with air pressure and mounted to the AFM microscope for immediate imaging. […]
In a first step. we synthesized the lipid-modified phosphoramidite 1 with a C12-lipid chain incorporated at the 5-position of the uridine base (FIGS. 2A-B). […] We evaluated the CMC of the trCLN3-L4nanoconstructs using Forster resonance energy transfer (FRET; Example 3; FIGS. 6A-C; Table 2) and fluorescence studies with pyrene-loaded trCLN3-L4 nanoconstructs (FIGS. 7A-B; Table 3). […] The trCLN3-L4 3 nanoconstructs have an average diameter of 21.2±1.5 nm (FIG. 8C, upper panel), consistent with the size of 25 nm measured by TEM.

[3] = TEM size of trCLN3-L4 nanoconstructs; format: physicochemical; conditions: negative stain electron microscopy
Protocol: The size and structure of the trCLN3-L4 nanoconstructs were analyzed by negative stain electron microscopy. Samples were prepared using negative staining. In brief, carbon coated grids (Quantifoil Micro Tools GmbH, Jena, Germany, 200 mesh) were glow discharged to render the surface hydrophilic prior to applying samples. 10 μL of an aqueous solution of trCLN3-L4 were applied to the grid. Afterwards excess solution was carefully blotted off using filter paper followed by 3 times washing with ddH2O. In the final step, grids were stained with negative staining reagent by placing them (plastic side down) on a 10 μL drop of freshly prepared 2% […] uranyl formiate aqueous staining solution. TEM micrographs were recorded using a JEOL JEM 2200 FS electron microscope (JEOL, Japan) operated at 200 kV. The size of the micelles measured on the TEM images could typically be observed in a range between 20 and 25 nm.

[4] = Serum stability in PBS-buffered fetal calf serum (PAGE of 32P-labeled aptamer); format: in vitro ADME; conditions: 10% PBS-buffered FCS, 37° C., 0 to 72 h
Protocol: (§1) Serum stabilities of trCLN3, its two point mutant non-binding variant trCLN3.mut and their corresponding lipid-functionalized derivatives trCLN3-L4 and trCLN3.mut-L4 were investigated in fetal calf serum (FCS) and human blood serum. For this purpose, the aptamer motifs were labeled at their 5′-end with ^32P to form radiolabeled oligonucleotides. The degradation tests of all the aptamer motifs were performed for 60-72 h at 37°° C. 6 pmol (12 μl of 0.5 μM) of the radio-labeled aptamer (5′-end-labeled with γ-^32P) was incubated in a volume of 300 μl freshly thawed PBS-buffered FCS or human blood serum (270 μl serum+30 μl 10×PBS). For each measurement, 10 μl of the samples were removed, mixed with 90 μl of gel loading buffer (80% formamide+5 mM EDTA+0.01% SDS) and subsequently stored at −20° C. Aliquots of samples were taken after indicated time intervals of 0, 0.3, 1.5, 3, 6, 24, 48, 60 and 72h respectively. The serum stability of the aptamer in FCS or in HBS at different time intervals were analyzed on a denaturing PAGE by loading 10 μl of each sample onto a 10% TAE-Urea gel and running the gels for 90 minutes at 350 V. Gels were wrapped in clingfilm and exposed to a phosphorimager screen in a closed cassette over a period of 12 h and finally the residual intact aptamer bands were analyzed by scanning the screen in a phosphorimage-scanner (FujiFilm FLA 3000). Intensities of the residual intact aptamer bands were calculated applying AIDA image analyzer software program. Serums half-lives of the selected aptamers were determined by using a half-life curve-fitting data analysis program (GraphPad Prism).

[5] = Serum stability in PBS-buffered human blood serum (PAGE of 32P-labeled aptamer); format: in vitro ADME; conditions: 10% PBS-buffered HBS, 37° C., 0 to 72 h
Protocol: as §1

trCLN3-L4: trCLN3 aptamer with four C12-lipid-modified dU residues at the 5′-end; self-assembles into micellar nanoconstructs (TGGATGGTAGCTCGGTCGGGGTGGGTGGGTTGGCAAGTCT; four 5' C12-lipid-modified dU residues, chemistry not fully specified)
critical micelle concentration (CMC) ([1]; FRET, aqueous medium): 300 nM and ~0.005 mg/ml | CMC values ([1]; both methods (FRET and pyrene fluorescence)): 300 to 350 nM | average diameter [2]: 21.2±1.5 nm | size measured by TEM [3]: 25 nm | serum half-life (t1/2) [4]: no significant degradation even up to 72 h | serum half-life (t1/2) [5]: no significant degradation even up to 72 h
